Reference: paper PMC3319252

Experiments:
[1] = biological target: transmembrane (TM) domain of the human nicotinic acetylcholine receptor β2 subunit (human); test: SEC-MALS
[2] = biological target: transmembrane (TM) domain of the human nicotinic acetylcholine receptor α4 subunit (human); test: SEC-MALS

Row | stoichiometry N [1] | stoichiometry N [2] | Substance
1 | 5 | – | transmembrane (TM) domain of the human nicotinic acetylcholine receptor β2 subunit (domain or fragment)
2 | – | 5 | transmembrane (TM) domain of the human nicotinic acetylcholine receptor α4 subunit (domain or fragment)
